Consider 20 sequences from a protein production outcome set (Wang et al. 2014).

This series can be described thus: label from the status in PepcDB records.

For “MSLSVEFNKQQVRPRSEISPQDCWDITPLYLNRKAWKADLDSFGLKTDGSPTWPALQATQYQLDNSESLLSLLTTLFSIERKLNKLYVYAHLTHDQDITNQEGIADLKSITHLHTLFAEETSWVQPALTSLSESLIAQHLSAPCLAPYRFYLEKIFRLSIHTGTPGEEKILASAFTPLEVASKAFSSLSDSEIPFGQATDSEGNSHPLSHALASLYMQSTDRELRKTSYLAQCERYHSYRHTFANLLNGKIQAHVFYAKNKRYNSCLQAALYHNNIPTTVYTNLIDIVKKNSSLITKYFSIKQRCLNLKDFHFYDVYAPLSQSKEKKYTFQEAVDLIYTSLSPLGTEYIDTLKQGLTTQGWVDKYENLNKRSGAYSSGCYDSHPYVLLNYTGTLYDVSVIAHEGGHSMHSYFSRKHQPFHDAQYPIFLAEIASTLNEMLLMDSMLKESDSKEEKITILTRCLDTIFSTLFRQVLFASFEYDIHHAAEHGVPLTEEYLSSTYKNLQNEFYGEIITFDVLSNIEWARIPHFYYNFYVYQYATGIIAALCFLEKILNNEDNALNSYLNFLKSGGSDFPLEILKKSGLDMGTVEPIQKAFCFIEKKIQELSSLIEGHHHHHH”, the protein production entry was “not failed”. As to “MSLSYLTEEKLTIVGAAGMIGSNMAQTAAMMRLTPNLCLYDPFAVGLEGVAEEIRHCGFEGLNLTFTSDIKEALTDAKYIVSSGGAPRKEGMTREDLLKGNAEIAAQLGKDIKSYCPDCKHVIIIFNPADITGLVTLIYSGLKPSQVTTLAGLDSTRLQSELAKHFGIKQSLVTNTRTYGGHGEQMAVFASTAKVNGTPLTDLIGTDKLTNEQWAELKQRVVKGGANIIKLRGRSSFQSPSYVSIEMIRAAMGGEAFRWPAGCYVNVPGFEHIMMAMETTITKDGVKHSDINQLGNEAERAALKESYSHLAKLRDEVIAMGIIPAIADWKTVNPNEGHHHHHH”, the protein production result was “not failed”. For “MSLTAQIRLAEPADLNDDTLRARAVAAARGDQRFDVLITGGTLVDVVTGELRPADIGIVGALIASVHEPASRRDAAQVIDAGGAYVSPGLIDTHMHIESSMITPAAYAAAVVARGVTTIVWDPHEFGNVHGVDGVRWAAKAIENLPLRAILLAPSCVPSAPGLERGGADFDAAILADLLSWPEIGGIAEIMNMRGVIERDPRMSGIVQAGLAAEKLVCGHARGLKNADLNAFMAAGVSSDHELVSGEDLMAKLRAGLTIELRGSHDHLLPEFVAALNTLGHLPQTVTLCTDDVFPDDLLQGGGLDDVVRRLVRYGLKPEWALRAATLNAAQRLGRSDLGLIAAGRRADIVVFEDLNGFSARHVLASGRAVAEGGRMLVDIPTCDTTVLKGSMKLPLRMANDFLVKSQGAKVRLATIDRPRFTQWGETEADVKDGFVVPPEGATMISVTHRHGMAEPTTKTGFLTGWGRWNGAFATTVSHDSHNLTVFGGNAGDMALAANAVIGTGGGMAVASEGKVTAILPLPLSGLVSDAPLEEVARAFEDLREAVGKVVEWQPPYLVFKACFGATLACNIGPHQTDMGIADVLTGKVMESPVIEVLGEGHHHHHH” the value was “not failed”; for “MSLTEEFVNKEDALKNYNAKEFRTPDGYTSDMILTTVKELNGKPTLHILLIKRSLTNAEGKPNMEGGKWAVPGGFVDENESAEQAAERELEEETSLTDIPLIPFGVFDKPGRDPRGWIISRAFYAIVPPEALEKRAAGDDAAEIGLFPMTEALELPLAFDHLDMLKKAFSAITEEFLLTEGHHHHHH”, “not failed”. The same measure for “MSLTESARIDGVSLYEIVIPMKIPFQISSGTCYTRRSLVVEIREGDLFGYGESAPFEEPFYLGETLETTKVILKNHLLPMILGKEPLSIEEFNHLIKNGIRGNHFARCGVENAYWDLIAKKNKISLKAMIEKKMKNLGVKQEYLASNNYIESGAALGIPEDGRIETLIHQVEESLQEGYRRIKIKIKPGWDVEPLQETRRAVGDHFPLWTDANSSFELDQWETFKAMDAAKCLFHEQPLHYEALLDLKELGERIETPICLDESLISSRVAEFVAKLGISNIWNIKIQRVGGLLEAIKIYKIATDNGIKLWGGTMPESGLGARFLISLASFRGFVFPADVAASEKWYGKGNDLVENTMTDGKIYVPDEPGASFDMTLSHLEALGKKIWESQRGEGHHHHHH”: “not failed”; for “MSLTGFWHDDFNNATPNDICVAIRSEAADAGIAQAIMQQLEEALKQLAQGSGSSQALTQVRRWDSACQKLPDANLALISVAGEYAAELANQALDRNLNVMMFSDNVTLEDEIQLKTRAREKGLLVMGPDCGTSMIAGTPLAFANVMPEGNIGVIGASGTGIQELCSQIALAGEGITHAIGLGGRDLSREVGGISALTALEMLSADEKSEVLAFVSKPPAEAVRLKIVNAMKATGKPTVALFLGYTPAVARDENVWFASSLDEAARLACLLSRVTARRNAIAPVSSGFICGLYTGGTLAAEAAGLLAGHLGVEADDTHQHGMMLDADSHQIIDLGDDFYTVGRPHPMIDPTLRNQLIADLGAKPQVRVLLLDVVIGFGATADPAASLVSAWQKACAARLDNQPLYAIATVTGTERDPQCRSQQIATLEDAGIAVVSSLPEATLLAAALIHPLSPAAQQHTPSLLENVAVINIGLRSFALELQSASKPVVHYQWSPVAGGNKKLARLLERLQGHPHHH”: “not failed”; for “MSLTKLYYEDQYIKEFKGEIIEVKEIDGKFHVLLDQTAFFPGGGGQMGDLGLIDGIKVLDVYEEEGKVYHVLEKEPKKLKNLQCELDWERRFDGMQQHLGQHLLSGCFYDLFGANTCGFHLGKEISTVDIVGFLDEKTIREAEKEANRLIFENLEVKSYAPSKKELKKVKTRRALPKTDEEIRIVEIVGLDLNACCGVHPRNTRDLQVIKIRRWEKHKNATRIEYVAGNRAVSEGHHHHHH”: “not failed”. Regarding “MSLTLRVVPELYCFDINVSQSFFVDVLGFEVKYERPDEEFVYLTLDGVDVMLEGIAGKSRKWLSGDLEFPLGSGVNFQWDVIDIEPLYQRVNESAADSIYLALESKSYQCGDSIATQKQFMVQTPDGYLFRFCQDIHEGHHHHHH”, the protein production entry is “not failed”. The same measure for “MSLTPTVMVVDESRITFLAVKNALEKDGFNVIWAKNEQEAFTFLRREKIDLVFVDVFEGEESLNLIRRIREEFPDTKVAVLSAYVDKDLIINSVKAGAVDYILKPFRLDYLLERVKKIISSTPRVTVSLRKNIEEGHHHHHH”: “not failed”; for “MSLTPYEPFRHLDQMRREFDRFFPDFPIDLPNRHLTLSPKMDVHETDHEVILECDIPGLESKEDLQIDVEPRSVRIEGRIKRSKEVHDERFYRREREIGHFRRVVPLPAEVAEDDIRAAYRNGVLEVRMRKRLDDRRRTIDVEFHLEHHHHHH”: “not failed”; for “MSLTRTQPVELVTMVMVTDPETQRVLVEDKVNVPWKAGHSFPGGHVEVGEPCATAAIREVFEETGLRLSGVTFCGTCEWFDDDRQHRKLGLLYRASNFTGTLKASAEGQLSWLPITALTRENSAASLPEFLQVFTGTASTLVSDSWNGNLRIDEGHHHHHH”: “not failed”. On to “MSLTTMLEVAKRAGVSKATVSRVLSGNGYVSQETKDRVFQAVEESGYRPNLLARNLSAKSTQTLGLVVTNTLYHGIYFSELLFHAARMAEEKGRQLLLADGKHSAEEERQAIQYLLDLRCDAIMIYPRFLSVDEIDDIIDAHSQPIMVLNRRLRKNSSHSVWCDHKQTSFNAVAELINAGHQEIAFLTGSMDSPTSIERLAGYKDALAQHGIALNEKLIANGKWTPASGAEGVEMLLERGAKFSALVASNDDMAIGAMKALHERGVAVPEQVSVIGFDDIAIAPYTVPALSSVKIPVTEMIQEIIGRLIFMLDGGDFSPPKTFSGKLIRRDSLIAPSREGHHHHHH”, for which the protein production entry is recorded as “not failed”. Consider “MSLTTSHFIPFPREMVWDWHTRKGAVARLTPPFIPLNPITQAERLADGTTIFSLPAGLKWVARHDLSGFLNGSRFTDVCLTAPVKALANWRHVHNFVDQDGGTLITDSVSTRLPASTLTGMFAYRQTQLIEDLKFLSRTSTLFDGSPLTVAITGSRGLVGRALTAQLQTGGHEVIQLVRKEPKPGKRFWDPLNPASDLLDGADVLVHLAGEPIFGRFNDSHKEAIRESRVLPTKFLAELVAESTQCTTMISASAVGFYGHDRGDEILTEESESGDDFLAEVCRDWEHATAPASDAGKRVAFIRTGVALSGRGGMLPLLKTLFSTGLGGKFGDGTSWFSWIAIDDLTDIYYRAIVDAQISGPINAVAPNPVSNADMTKILATSMHRPAFIQIPSLGPKILLGSQGAEELALASQRTAPAALENLSHTFRYTDIGAAIAHELGYEQLADFAQQQEIEAERKQERAELKAAKKIAKKAPVLEESPTNLEDPEEVEQSILSSILNFRRKRNDLEHHHHHH”, for which the protein production result is “not failed”. For “MSLVGKTLSGRYRVVRPLARGALARVYLAFDPFGTPYALKLFPPKARPRRDRELWVGRRLAHPNLNPVLEALDLEEGPALLLAYAPGEELGRWMGKSPAFSQAMRVFHQLLLALAHMHEKGLVHRDVKPENILVNAGEARLLDFDLSGPAQERFQKPLLLGTPAYLAPELLRGLPSGPEADVYAAGIILYWMLTGEHPFADPSGRVSLDPDRGPHPPVAGLGEEAALYLERLLAPDPKARFPTAQEALKAFPF” the value was “failed”; for “MSLVLMAQATKPEQLQQLQTTYPDWTFKDAAAVTAADYDQIEVMYGNHPLLKTILARPTNQLKFVQVISAGVDYLPLKALQAAGVVVANTSGIHADAISESVLAAMLSVVRGYHAAWLNQRGARQWALPMTTSTLTGQQLLIYGTGQIGQSLAAKASALGMHVIGVNTTGHPADHFHETVAFTATADALATANFIVNALPLTPTTHHLFSTELFQQTKQQPMLINIGRGPAVDTTALMTALDHHQLSMAALDVTEPEPLPTDHPLWQRDDVLITPHISGQIAHFRATVFPIFAANFAQFVKDGTLVRNQVDLNRGYEGHHHHHH”, “not failed”.

As for “MSLVMSGEKMKVIIVEDEFLAQQELSWLINTHSQMEIVGSFDDGLDVLKFLQHNKVDAIFLDINIPSLDGVLLAQNISQFAHKPFIVFITAWKEHAVEAFELEAFDYILKPYQESRIINMLQKLTTAWEQQNNAAEGHHHHHH”, the protein production result is reported as “not failed”. “MSLVVFLIAYVIRRRLDRADHLAGDEVWRNWFHRWGRVEAGQERSVWRGALLVVLPSLALAGAWALSSEAGYRYALYPLELVLMVVLMGAPGWRKVLRAYSDAWRRGDMQAAWHHVQERLPASERGAALSPEAMHLSVSRALMVSVFERFFLVVFWYAVGGIALAFLARGLVALAGQWPQAAARERYQRAARLIGWIPSRLLSCTFGLAGDLAGWSREIRKVFPGFGKKTADVLMISANGSLTGYALDPARFSELHPEEWPDFGGRSLSAIRDLLNRSMLVWICAFALLVIAGMA”: the protein production entry is reported as “failed”.

Turning to “MSLYEWLNALPKAELHLHLEGTLEPELLFALAERNRIALPWNDVETLRKAYAFNNLQEFLDLYYAGADVLRTEQDFYDLTWAYLQKCKAQNVVHVEPFFDPQTHTDRGIPFEVVLAGIRAALRDGEKLLGIRHGLILSFLRHLSEEQAQKTLDQALPFRDAFIAVGLDSSEVGHPPSKFQRVFDRARSEGFLTVAHAGEEGPPEYIWEALDLLKVERIDHGVRAFEDERLMRRLIDEQIPLTVCPLSNTKLCVFDDMSQHTILDMLERGVKVTVNSDDPAYFGGYVTENFHALQQSLGMTEEQARRLAQNSLDARLVKEGHHHHHH”, the protein production result is recorded as “not failed”.

For “MSMATPSSAQRFNDRVAAYVRYRPSYPPQLLRWLHGELGVTPATAVADIGAGTGISSRLFLEAGYAVTAVEPNQAMREAALQWLAEFPKFQAIDGTAEATGLADASVGLVSAAQAFHWFDMQAVRDEWARILQPGGLAVVYWNSRELDSTAFLRGYEQLLLDYGTDYSAVAERYQDDATMQAWFGEGFRAMARFPNVQRLDFESLRGRLLSSSYAPLAHDPRHAPMLAALRTLFDAYAHDGLIDFQYQTRVFAGRLN”, the protein production result is “failed”. In the case of “MSMNQFRTMEEEKQDGGELFHTIEVAKVDRNNVSQPPPAATAALLEVPGDELNLIPPLNFSMVDNGIFRSGFPDSANFSFIKTLGLRSIISLCPEPYPENNMQFLKSNGISLFQFGIEGSKSKEPFVDILDQKIREALKVLLDEKNHPLLIHCKRGKHRTGCLVGCMRKLQKWCITSILDEYKRFAAAKARVSDQRFLESFDVSGLKHTPMSFSCSNR”, the protein production entry is on record as “failed”.
